The target of the experiment is T1, XLF-6xHis (human, UniProt Q9H9Q4 1-299).
T1 construct: XLF, human, amplified from pGEX2TKP-XLF; source: E. coli (pHAT5), purified (His-trap, HiTrap Q)
The experiment can be described thus: BLI; XLF-6xHis and XRCC4^1-164 wildtype or mutants. The following applies: both partners purified. (BLI is a label-free optical method that tracks binding on a fibre tip over time.)

T1 sequence (Q9H9Q4 whole entry): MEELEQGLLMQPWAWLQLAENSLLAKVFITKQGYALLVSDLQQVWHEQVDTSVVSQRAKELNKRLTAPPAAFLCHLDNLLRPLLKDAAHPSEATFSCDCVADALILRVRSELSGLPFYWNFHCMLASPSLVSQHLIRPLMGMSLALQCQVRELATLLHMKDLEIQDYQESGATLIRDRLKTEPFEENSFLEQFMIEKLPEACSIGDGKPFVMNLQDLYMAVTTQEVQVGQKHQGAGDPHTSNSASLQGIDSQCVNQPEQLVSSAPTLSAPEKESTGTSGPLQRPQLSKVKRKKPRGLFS

B1: 6xHis-XRCC4^1-164 (C-to-A), wildtype for the SIMs (domain or fragment, human, UniProt Q13426 1-164, looked up)
chain: MERKISRIHLVSEPSITHFLQVSWEKTLESGFVITLTDGHSAWTGTVSESEISQEADDMAMEKGKYVGELRKALLSGAGPADVYTFNFSKESAYFFFEKNLKDVSFRLGSFNLEKVENPAEVIRELIAYALDTIAENQAKNEHLQKENERLLRDWNDVQGRFEK
modifications: 15N-labelled where it is the observed protein in NMR
notes: The three cysteines are printed for the 1-180 construct amplified from this vector; also called XRCC4 head domain; source: E. coli BL21-CodonPlus (DE3)-RIL (pET-28a), purified; isotope-labelled in minimal medium for NMR
For B1, the binding result is reported as “binds”.

These data come from publication doi:10.1101/2021.01.20.427433, “Microarray screening reveals a non-conventional SUMO-binding mode linked to DNA repair by non-homologous end-joining” (bioRxiv, 2021).
